From the supplement of paper PMC10567573
± gives the standard deviation.

Assay: protein stability index of a GFP-peptide fusion (GPS, HEK-293T) (PSI 1-6); higher = more stable
Conditions: c terminus: a fixed tail appended
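Further: 24-mer peptide tiles fused after GFP, lentivirally expressed, FACS-sorted into six equal bins by GFP/DsRed ratio, decoded by Illumina sequencing, PSI is the read-weighted mean bin number.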

Sequence | protein stability index (treatment: DMSO) | protein stability index (treatment: MLN4924 1 uM, 8 h)
DAETSKLIYDFIEDQGGLEAVRQE [WAS] | 4.61 ± 0.24 | 4.76 ± 0.28
ETDVWFSKQRKDFEGMAFLETEQG [GMCL1] | 4.12 ± 0.62 | 4.45 ± 0.16
GPEHATRLNGTAKGERRREPGGYD [DVL3] | 5.13 ± 0.26 | 5.18 ± 0.19
KANSPLKGHERTVQYLQHLGTENL [VPS39] | 3.85 ± 0.3 | 3.71 ± 0.31
NKISRFQAPISAPEYTYGISNIDT [MFF] | 3.42 ± 0.28 | 3.56 ± 0.45
QRELEIPEQQVDMHDMLLEELAPV [ZNF449] | 5.22 ± 0.26 | 5.12 ± 0.21
QRIHAAERLCMGVDCTEIFGGNPR [ZNF263] | 3.36 ± 0.27 | 3.38 ± 0.31
AYRGNCKDVSRCVAERKYTQEQAR [SMOC2] | 3.06 ± 0.19 | 3.38 ± 0.46
NTEIEKLGRSIVSSPQGKSGPEAA [PKD2L1] | 5.35 ± 0.22 | 5.34 ± 0.15
AQLRDAVQSLQLSPRTRGSWSQPQ [RASAL3] | 3.65 ± 0.15 | 3.6 ± 0.35
WFSDPSDTALLNLLPMLDALRFTA [CTDNEP1] | 2.73 ± 0.58 | 2.98 ± 0.67
TNLVLPSNGSMHNYCPQQTKITSA [EDNRA] | 3.75 ± 0.13 | 3.63 ± 0.14
LVMPIEDQLTQIMRTGQNTWESKN [PCMTD1] | 3.13 ± 0.13 | 3.2 ± 0.38
VWNRKLDLLCKTSHLSDTGISALV [WDR41] | 2.26 ± 0.27 | 2.2 ± 0.34
ASGLGLEITTQFLIYASYFALIAV [SLC19A2] | 3.26 ± 0.26 | 3.13 ± 0.47
LMVGPNFRVGKKIGCGNFGELRLG [CSNK1G3] | 1.9 ± 0.23 | 2.58 ± 0.59
WLQERYEIVGNLGEGTFGKVVECL [CLK3] | 2.24 ± 0.068 | 2.27 ± 0.12
DMNGKSLHGKAIKVEQAKKPSFQS [RBMY1A1] | 3.16 ± 0.2 | 3.61 ± 0.2

Sequence | protein stability index (treatment: DMSO) | protein stability index (treatment: MLN4924 1 uM, 8 h)
PVEEPEPKPDRLLVLKVLWNDFLM [SLC19A2] | 2.21 ± 0.2 | 2.17 ± 0.19
LPMLSVDMENKENGSVGVKNSMEN [SAMD13] | 5.09 ± 0.25 | 5.18 ± 0.27
SRSHDRLPYQRRYRERRDSDTYRC [CLK3] | 4.09 ± 0.27 | 4.24 ± 0.36
ISLEERRAQLPKYQRNLPRPGQAP [ZNF207] | 3.41 ± 0.12 | 3.67 ± 0.32
DSEEPVSTHQEAENEKDRADQTVL [CHGB] | 5.29 ± 0.56 | 5.65 ± 0.27
INKIAGHPLAQNERCLHMFLQEEA [SNX12] | 3.07 ± 0.12 | 3.3 ± 0.17
CLGQLNLEQRSESVRRTRSKIGFG [SMAD6] | 3.06 ± 0.25 | 3.1 ± 0.35
VLYLMMPIVNISEVLGPLCLMLLM [PHTF1] | 3.07 ± 0.62 | 2.67 ± 0.47
SPEVESLPVASSSTLLPLAPSNST [NFE2L1] | 5.04 ± 0.23 | 5.27 ± 0.13
GQLVRNDSLWHRSDSAPRNKISRF [MFF] | 3.66 ± 0.87 | 4.04 ± 0.21
GVKSRIQALRQMNEGAIDCVNYEG [DLC1] | 3.77 ± 0.32 | 3.87 ± 0.36
AGSEQKGQIIKDIDSGSPAEEAGL [PDZK1] | 5.61 ± 0.11 | 5.26 ± 0.27
RFEEPKGPPARQEDSKELRALRKM [CBY2] | 4.91 ± 0.43 | 4.99 ± 0.2
KTLRVWDLKDDGNMMKVLRGHQNW [WSB1] | 2.66 ± 0.4 | 2.4 ± 0.42
TVPGQALACGSNRFNKLGLDHLSL [NEK8] | 2.44 ± 0.34 | 2.45 ± 0.12
QALRQMNEGAIDCVNYEGQSAYDV [DLC1] | 4.41 ± 0.22 | 4.39 ± 0.1
SRVTASSGITIPKPPKPPDKPLMP [SMARCE1] | 3.78 ± 0.25 | 3.94 ± 0.18
IVNSTEESDDAFDTVTIPVPSEEP [IQUB] | 5.5 ± 0.25 | 5.55 ± 0.21
